In paper PMC5601012 (Molecular pharmaceutics, 2017):
Where two headings read alike, the source gives them in different places.

B1: αPD-1 scFv, NH2-Histag(H6)-(GGGSG)3-VH-(GGGSG)4-VL-COOH (scFv, V domains shown)
VH: EVQLQESGPGLVKPSQSLSLTCSVTGYSITSSYRWNWIRKFPGNRLEWMGYINSAGISNYNPSLKRRISITRDTSKNQFFLQVNSVTTEDAATYYCARSDNMGTTPFTYWGQGTLVTVSS
VL: DIVMTQGTLPNPVPSGESVSITCRSSKSLLYSDGKTYLNWYLQRPGQSPQLLIYWMSTRASGVSDRFSGSGSGTDFTLKISGVEAEDVGIYYCQQGLEFPTFGGGTKLELK
B2: intact anti-programmed death-1 antibody (αPD-1), clone RMP1-14 (antibody, V domains shown)
VH: B1 VH
VL: B1 VL

What was measured:
[1] = molecular target: T1, programmed death-1 (PD-1) on EL4 cells (mouse (endogenous in EL4), UniProt Q02242); experiment: flow cytometry on cells
[2] = molecular target: T1, programmed death-1 (PD-1) on EL4 cells; experiment: flow cytometry on cells; remark: listed apart in the source

T1 sequence (Q02242 25-288): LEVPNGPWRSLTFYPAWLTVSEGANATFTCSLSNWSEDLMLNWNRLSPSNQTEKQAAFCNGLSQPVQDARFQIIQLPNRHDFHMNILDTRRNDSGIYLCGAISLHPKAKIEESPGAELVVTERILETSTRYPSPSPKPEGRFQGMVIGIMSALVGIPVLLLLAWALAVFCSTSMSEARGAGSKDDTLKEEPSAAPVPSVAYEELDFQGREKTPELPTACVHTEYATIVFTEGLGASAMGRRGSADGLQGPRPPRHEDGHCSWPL

| Binder | EC50 [1] | EC50 [2] |
| --- | --- | --- |
| B1 | 4160 nM | 320 nM |
| B2 | 1320 nM | – |
